The target in experiment [1] is T1, Bacillus anthracis protective antigen (PA) (Bacillus anthracis, UniProt P13423 30-764). Put plainly: SPR (BIACore 3000), PA on CM5 chip.
Experiment [2] concerns the target T1, Bacillus anthracis protective antigen …. Nature of the experiment: SPR, purified scAb on immobilized PA ('Affinity Measurements of Purified scAb').
Experiment [3] shares this target.
The target is the same in experiment [4]. Put plainly: SPR (BIACore 3000). (In general: SPR reads the build-up and loss of mass on a sensor chip optically.)
Experiment [5] shares this target. Nature of the experiment: SPR (BIACore 3000), PA on CM5 chip, scAb in solution.

Usually Kd stands for the equilibrium constant for the complex coming apart. One may read the koff as a measure of how fast the partners let go of each other. Read a low koff as slow dissociation. Broadly, the kon is a measure of how fast the partners come together.

T1 sequence (P13423 30-764 limits assumed): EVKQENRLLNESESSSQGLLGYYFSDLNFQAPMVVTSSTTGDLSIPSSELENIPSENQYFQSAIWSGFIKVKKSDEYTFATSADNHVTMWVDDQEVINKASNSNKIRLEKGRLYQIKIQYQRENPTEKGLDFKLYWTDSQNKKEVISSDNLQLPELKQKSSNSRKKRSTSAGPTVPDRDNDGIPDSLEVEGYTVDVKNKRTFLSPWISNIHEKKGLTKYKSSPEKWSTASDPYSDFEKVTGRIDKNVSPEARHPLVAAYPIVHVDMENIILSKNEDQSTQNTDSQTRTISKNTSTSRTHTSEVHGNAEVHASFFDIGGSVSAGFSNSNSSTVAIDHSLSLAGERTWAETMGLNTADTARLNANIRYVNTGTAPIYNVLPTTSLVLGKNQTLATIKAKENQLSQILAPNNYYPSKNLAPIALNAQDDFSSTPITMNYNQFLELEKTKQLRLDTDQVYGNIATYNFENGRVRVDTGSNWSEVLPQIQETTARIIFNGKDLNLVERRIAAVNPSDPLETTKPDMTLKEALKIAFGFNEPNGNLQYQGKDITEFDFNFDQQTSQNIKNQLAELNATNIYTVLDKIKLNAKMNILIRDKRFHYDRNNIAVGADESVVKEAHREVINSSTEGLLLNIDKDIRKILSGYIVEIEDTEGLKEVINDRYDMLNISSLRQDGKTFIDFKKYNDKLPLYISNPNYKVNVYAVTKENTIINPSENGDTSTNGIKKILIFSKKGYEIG

B1: 14B7 scAb (scFv)
chain: DIQMTQTTSSLSASLGDRVTISCRASQDIRNYLNWYQQKPDGTVKLLIYYTSRLQSGVPSRFSGSGSGTDYSLTISNQEQEDIGTYFCQQGNTLPWTFGGGTKLEIKRGGGGSGGGGSGGGGSGGGGSEVQLQQSGPELVKPGASVKISCKDSGYAFSSSWMNWVKQRPGQGLEWIGRIYPGDGDTNYNGKFKGKATLTADKSSSTAYMQLSSLTSVDSAVYFCARSGLLRYAMDYWGQGTSVTVSS
In experiment [1], B1 showed a Kd of 4.3 nM. In experiment [2], the koff came to 0.003 s⁻¹ and the association rate constant (kon) worked out at 710000 M⁻¹ s⁻¹.

B2: NlpA-[14B7 scFv] (scFv)
scFv: CDQSSSDIQMTQTTSSLSASLGDRVTISCRASQDIRNYLNWYQQKPDGTVKLLIYYTSRLQSGVPSRFSGSGSGTDYSLTISNQEQEDIGTYFCQQGNTLPWTFGGGTKLEIKRGGGGSGGGGSGGGGSGGGGSEVQLQQSGPELVKPGASVKISCKDSGYAFSSSWMNWVKQRPGQGLEWIGRIYPGDGDTNYNGKFKGKATLTADKSSSTAYMQLSSLTSVDSAVYFCARSGLLRYAMDYWGQGTSVTVSS
For B2, the “fold higher mean fluorescence intensity compared to controls” value in experiment [3] was around 9 fold.

B3: M18 scAb (scFv)
chain: DIQMTQTTSSLSASLGDRVTVSCRASQDIRNYLNWYQQKPDGTVKFLIYYTSRLQPGVPSRFSGSGSGTDYSLTINNLEQEDIGTYFCQQGNTPPWTFGGGTKLEIKRGGGGSDGGGSGGGGSGGGGSEVQLQQSGPELVKPGASVKISCKDSGYAFNSSWMNWVKQRPGQGLEWIGRIYPGDGDSNYNGKFEGKAILTADKSSSTAYMQLSSLTSVDSAVYFCARSGLLRYAMDYWGQGTSVTVSS
Turning to B3, the “fold affinity improvement compared to the parental antibody 14B7” value in experiment [4] is above 120 fold. In experiment [2], this molecule showed a kon of 1.2e+06 M⁻¹ s⁻¹. In experiment [5], the Kd came to 0.035 nM and the koff was 4.2e-05 s⁻¹.

(Values after patent US20060029947A1 (University of Texas, published 2006).)
